# Experimental data taken from US6872803 (Kyowa Kirin, dated 2005).
# [ ]: non-standard residue; d: D form.
# B1: Compound (g), H-Phe-Gly-Gly-Arg-Ile-Asp-Arg-Ile-NH2 (peptide)
# peptide: H-FGGRIDRI-NH2
# B2: Compound (f), H-Ser-Met-Gly-Leu-Pro-Cys-Ile-Phe-Met-OH (peptide)
# peptide: H-SMGLPCIFM-OH
# B3: Compound (d), H-Ser-Met-Gly-Leu-Pro-Cys-Val-Val-Met-OH (peptide)
# peptide: H-SMGLPCVVM-OH
# B4: Compound (i), H-Phe-Gly-Gly-D-Arg-Ile-Asp-Arg-Ile-NH2 (peptide)
# peptide: H-FGG[dR]IDRI-NH2
# SMILES: CC[C@H](C)[C@H](NC(=O)[C@H](CCCNC(=N)N)NC(=O)[C@H](CC(=O)O)NC(=O)[C@@H](NC(=O)[C@@H](CCCNC(=N)N)NC(=O)CNC(=O)CNC(=O)[C@@H](N)Cc1ccccc1)[C@@H](C)CC)C(N)=O
# B5: Compound (h), H-Ala-Phe-Gly-Gly-Arg-Ile-Asp-Arg-Ile-Gly-Ala-Ala-NH2 (peptide)
# peptide: H-AFGGRIDRIGAA-NH2
# B6: Compound (e), H-Ser-Ser-Gly-Cys-Val-Leu-Ser-OH (peptide)
# peptide: H-SSGCVLS-OH
# Experiments:
# [1] = target: T1, Bovine lung-derived ANP receptor (bovine); assay: displacement of 125I-rat ANP from bovine lung membrane fraction, filter binding
# T1 chain: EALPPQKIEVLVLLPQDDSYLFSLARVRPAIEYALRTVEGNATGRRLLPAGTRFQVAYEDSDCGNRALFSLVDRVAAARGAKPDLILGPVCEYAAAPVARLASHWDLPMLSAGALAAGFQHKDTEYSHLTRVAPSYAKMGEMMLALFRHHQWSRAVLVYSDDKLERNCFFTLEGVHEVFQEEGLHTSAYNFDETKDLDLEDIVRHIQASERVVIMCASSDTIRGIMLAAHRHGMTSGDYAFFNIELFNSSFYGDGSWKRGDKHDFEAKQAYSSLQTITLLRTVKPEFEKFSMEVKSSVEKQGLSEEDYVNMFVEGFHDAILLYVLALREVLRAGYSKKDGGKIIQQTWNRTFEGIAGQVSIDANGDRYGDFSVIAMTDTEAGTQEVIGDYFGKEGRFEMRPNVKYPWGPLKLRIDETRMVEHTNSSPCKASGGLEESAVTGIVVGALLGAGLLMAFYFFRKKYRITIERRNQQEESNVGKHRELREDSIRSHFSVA
# [2] = target: T2, protein-farnesyltransferase derived from bovine brains (bovine, UniProt P29702 2-375; P49355 1-437); assay: cell-based or functional assay
# [3] = target: T2, protein-farnesyltransferase derived …; assay: cell-based or functional assay; remark: listed apart in the source
Binder,IC50 [1],"IC50 (µM), transfer of [3H]-farnesyl diphosphate to Ras protein (v-Ki-Ras p21) [2]","IC50 (µM), intake of [3H]-farnesyl diphosphate by biotin-lamin-B peptide (SPA enzyme assay kit) [3]"
B1,3.5 nM,,
B2,,21 µM,
B3,,1.6 µM,1.2 µM
B4,210 nM,,
B5,2.5 nM,,
B6,,10 µM,
